Key:
Type in all cases: in vivo
[1] = system: transgenic soybean plants; assay: oxyfluorfen tolerance of transgenic soybean plants (spray, grade of pesticide damage); conditions: for The grade of pesticide damage/plant: grade 0 / The grade of pesticide damage/plant: grade 1 / The grade of pesticide damage/plant: grade 2 / The grade of pesticide damage/plant: grade 3: 7 DAT, number of plants of 16 per genotype, grades; for tolerance to oxyfluorfen: soybean
[2] = system: transgenic soybean plants; assay: flumioxazin tolerance of transgenic soybean plants (spray, grade of pesticide damage); conditions: for The grade of pesticide damage/plant: grade 0 / The grade of pesticide damage/plant: grade 1 / The grade of pesticide damage/plant: grade 2 / The grade of pesticide damage/plant: grade 3: 7 DAT, number of plants of 16 per genotype, grades
[3] = system: transgenic soybean plants; assay: saflufenacil tolerance of transgenic soybean plants (spray, grade of pesticide damage); conditions: for The grade of pesticide damage/plant: grade 0 / The grade of pesticide damage/plant: grade 1 / The grade of pesticide damage/plant: grade 2 / The grade of pesticide damage/plant: grade 3: 7 DAT, number of plants of 16 per genotype, grades

B1: PPO-ECA: nucleotide sequence encoding Escherichia coli protoporphyrinogen oxidase PPO-EC (SEQ ID NO:43), Arabidopsis thaliana/soybean common codon usage bias (nucleic acid)
DNA: ATGAAAACACTTATCTTGTTCTCAACTAGAGATGGACAGACAAGAGAGATTGCTTCTTACTTGGCTTCAGAACTTAAGGAGTTGGGTATTCAAGCTGATGTTGCTAATGTTCATAGAATTGAAGAGCCTCAGTGGGAAAACTATGATAGAGTTGTTATTGGAGCTTCTATTAGATATGGTCATTACCATTCAGCTTTTCAAGAGTTCGTTAAGAAACATGCTACTAGACTTAACTCTATGCCATCAGCTTTTTACTCTGTTAACTTGGTTGCTAGAAAGCCTGAGAAAAGAACTCCACAAACAAACTCTTACGCTAGAAAGTTCCTTATGAACTCACAGTGGAGACCTGATAGATGCGCTGTTATTGCTGGTGCTCTTAGATATCCAAGATACAGATGGTACGATAGATTCATGATCAAGTTGATTATGAAAATGTCTGGAGGTGAAACTGATACAAGAAAGGAGGTTGTTTACACAGATTGGGAACAGGTTGCTAATTTCGCTAGAGAGATTGCTCATCTTACTGATAAGCCAACATTGAAATGA
modifications: The nucleotide sequence of PPO-ECA
**Q.** What does the source list for B1?
**A.** The grade of pesticide damage/plant: grade 0 ([1]; oxyfluorfen 360 g ai/ha (2×)): 16 plant; The grade of pesticide damage/plant: grade 1 ([1]; oxyfluorfen 360 g ai/ha (2×)): 0 plant; The grade of pesticide damage/plant: grade 2 ([1]; oxyfluorfen 360 g ai/ha (2×)): 0 plant; The grade of pesticide damage/plant: grade 3 ([1]; oxyfluorfen 360 g ai/ha (2×)): 0 plant; The grade of pesticide damage/plant: grade 0 ([1]; oxyfluorfen 720 g ai/ha (4×)): 13 plant; The grade of pesticide damage/plant: grade 1 ([1]; oxyfluorfen 720 g ai/ha (4×)): 3 plant; The grade of pesticide damage/plant: grade 2 ([1]; oxyfluorfen 720 g ai/ha (4×)): 0 plant; The grade of pesticide damage/plant: grade 3 ([1]; oxyfluorfen 720 g ai/ha (4×)): 0 plant; tolerance to oxyfluorfen ([1]; oxyfluorfen at four-fold field concentration (720 g ai/ha)): high-resistant tolerance; tolerance to oxyfluorfen ([1]; oxyfluorfen at two-fold field concentration (360 g ai/ha)): high-resistant tolerance; The grade of pesticide damage/plant: grade 0 ([2]; flumioxazin 120 g ai/ha (2×)): 16 plant; The grade of pesticide damage/plant: grade 1 ([2]; flumioxazin 120 g ai/ha (2×)): 0 plant; The grade of pesticide damage/plant: grade 2 ([2]; flumioxazin 120 g ai/ha (2×)): 0 plant; The grade of pesticide damage/plant: grade 3 ([2]; flumioxazin 120 g ai/ha (2×)): 0 plant; The grade of pesticide damage/plant: grade 0 ([2]; flumioxazin 240 g ai/ha (4×)): 15 plant; The grade of pesticide damage/plant: grade 1 ([2]; flumioxazin 240 g ai/ha (4×)): 1 plant; The grade of pesticide damage/plant: grade 2 ([2]; flumioxazin 240 g ai/ha (4×)): 0 plant; The grade of pesticide damage/plant: grade 3 ([2]; flumioxazin 240 g ai/ha (4×)): 0 plant; tolerance to flumioxazin ([2]; soybean, flumioxazin at different concentrations (120 and 240 g ai/ha)): high-resistant tolerance; The grade of pesticide damage/plant: grade 0 ([3]; saflufenacil 50 g ai/ha (2×)): 9 plant; The grade of pesticide damage/plant: grade 1 ([3]; saflufenacil 50 g ai/ha (2×)): 7 plant; The grade of pesticide damage/plant: grade 2 ([3]; saflufenacil 50 g ai/ha (2×)): 0 plant; The grade of pesticide damage/plant: grade 3 ([3]; saflufenacil 50 g ai/ha (2×)): 0 plant; The grade of pesticide damage/plant: grade 0 ([3]; saflufenacil 100 g ai/ha (4×)): 8 plant; The grade of pesticide damage/plant: grade 1 ([3]; saflufenacil 100 g ai/ha (4×)): 3 plant; The grade of pesticide damage/plant: grade 2 ([3]; saflufenacil 100 g ai/ha (4×)): 5 plant; The grade of pesticide damage/plant: grade 3 ([3]; saflufenacil 100 g ai/ha (4×)): 0 plant; tolerance to saflufenacil ([3]; soybean, saflufenacil, compared with the control vector and CK): different extents of tolerance

From patent publication US20240200091A1, “USE OF PROTOPORPHYRINOGEN OXIDASE” (BEIJING DABEINONG BIOTECHNOLOGY CO., LTD., priority 2021, published 2024)
